Assay results reported in patent publication EP4778939A1 (Jiangsu Hengrui Pharmaceuticals Co., Ltd., dated 2026).

Target: human GPRC5D (human, UniProt Q9NZD1 1-345)
Test: cell-based or functional assay

Chain of human GPRC5D (Q9NZD1 whole entry): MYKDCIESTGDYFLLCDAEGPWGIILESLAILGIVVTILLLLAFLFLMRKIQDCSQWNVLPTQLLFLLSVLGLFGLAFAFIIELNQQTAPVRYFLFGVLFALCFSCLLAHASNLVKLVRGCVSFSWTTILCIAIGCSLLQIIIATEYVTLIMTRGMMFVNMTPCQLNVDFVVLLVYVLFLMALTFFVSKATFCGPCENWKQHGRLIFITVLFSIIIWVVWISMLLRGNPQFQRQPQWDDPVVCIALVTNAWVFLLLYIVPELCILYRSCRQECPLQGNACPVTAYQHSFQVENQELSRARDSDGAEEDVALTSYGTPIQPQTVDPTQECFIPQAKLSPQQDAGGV

B1: F4-0G4S-1 (bispecific antibody)
heavy 1: not shown
light 1: not shown
heavy 2: EVQLVQSGAEVKKPGASVKVSCKVSGYTFTDYPIHWMRQAPGQGLEWMGYVFPRDGSTKYNEKFRVRVTWTADKSTSTVYMELSSLRSEDTAVYYCSRELTAYWGQGTTVTVSSASTKGPSVFPLAPSSKSTSGGTAALGCLVKDYFPEPVTVSWNSGALTSGVHTFPAVLQSSGLYSLSSVVTVPSSSLGTQTYICNVNHKPSNTKVDKKVEPKSCDKTHTCPPCPAPEAAGGPSVFLFPPKPKDTLMISRTPEVTCVVVDVSHEDPEVKFNWYVDGVEVHNAKTKPREEQYNSTYRVVSVLTVLHQDWLNGKEYKCKVSNKALPAPIEKTISKAKGQPREPQVCTLPPSRDELTKNQVSLSCAVKGFYPSDIAVEWESNGQPENNYKTTPPVLDSDGSFFLVSKLTVDKSRWQQGNVFSCSVMHEALHNHYTQKSLSLSPGK
light 2: DVVLTQSPLSLPVTLGQPASISCKSSQSLLHSSGKTYLNWLLQRPGQSPRRLIYLVSKLDSGVPDRFSGSGSGTDFTLKISRVEAEDVGVYYCAQGTHFPRTFGGGTKVEIKRTVAAPSVFIFPPSDEQLKSGTASVVCLLNNFYPREAKVQWKVDNALQSGNSQESVTEQDSKDSTYSLSSTLTLSKADYEKHKVYACEVTHQGLSSPVTKSFNRGEC
  EC50 ratio (relative to JNJ-64407564), cytotoxic activity against NCI-H929: 0.09 ratio

B2: F2-0G4S-1 (bispecific antibody)
heavy 1: not shown
light 1: DVVMTQTPLSLSVTPGQPASISCRSSQSLVHSQGNTYLYWYLQKPGQSPKLLIYKVSNRFSGVPDRFSGSGSGTDFTLKISRVEAEDVGVYYCSQSTHVPPLTFGQGTKLEIKRTVAAPSVFIFPPSDEQLKSGTASVVCLLNNFYPREAKVQWKVDNALQSGNSQESVTEQDSKDSTYSLSSTLTLSKADYEKHKVYACEVTHQGLSSPVTKSFNRGEC
heavy 2: not shown
light 2: not shown
  EC50 ratio (relative to JNJ-64407564), cytotoxic activity against NCI-H929: 0.57 ratio
